Results: article PMC9433394

Molecular target: chicken skeletal muscle actin (chicken) (UniProt P68139)
Test: SEC; 20 uM chicken G-actin mixed with 2DGel at ratios 1:1, 1:2 and 2:1 in 1X KMI-Ca buffer (50 mM KCl, 10 mM imidazole, 1 mM MgCl2, 1 mM CaCl2), 30 min, Enrich SEC 650; peak fractions analysed by SDS-PAGE

Substance	stoichiometry N (actin per Heim2DGel)	stoichiometry N (actin per MKD1-2DGel)
Heim2DGel (two-domain gelsolin of Heimdallarchaeota LC_3) (natural protein)	1	–
MKD1-2DGel (two-domain gelsolin of Candidatus Prometheoarchaeum syntrophicum MK-D1) (natural protein)	–	2
